Experimental data: patent publication US20130252987A1, “METHOD OF REGULATING PLASMA LIPOPROTEINS” (MCMASTER UNIVERSITY, priority 2010, published 2013)

Experiments:
[1] = tested on: primary human hepatocytes; assay: LDL receptor protein in primary human hepatocytes; assay type: cell-based; settings: 50 ng/mL, 24 hours
Method: Cryopreserved plateable human hepatocytes, metabolism qualified from multiple normal human donors, were obtained from CellzDirect (Invitrogen, NC). The cells were seeded at 1×10^6 cells/well in a 6-well collagen coated plate according to the manufacturer's instructions (CellzDirect, Invitrogen, NC). The cells were incubated at 37° C. with 5% CO2 for 4 hours to allow the cells to adhere. The plating media was replaced and the cells incubated for 16 hours prior to human resistin 50 ng/mL treatment for 24 hours.
To determine if the above findings in immortalized HepG2 cells are relevant to humans, primary human hepatocytes […] (Invitrogen) were treated with human resistin at the optimum 50 ng/mL dose for 24 hours. […] While the magnitude of the inhibitory effect of human resistin on LDL receptor protein expression was not as large as with HepG2 cells, this was expected as primary hepatocytes are not as metabolically active as cultured hepatoma HepG2 hepatocytes.

[2] = tested on: rat primary hepatocytes; assay: cellular apoB100 protein expression in primary rat hepatocytes; assay type: cell-based; settings: 50 ng/mL, 24 hours
Method: (§1) Primary Cells: Fresh wild-type rat and mouse primary heptaocytes were supplied by CellzDirect (Invitrogen, NC) in a 6-well collagen coated plate. Upon arrival, the storage media was removed and incubation media (Williams E Medium, phenol red free, with incubation supplement pack, Gibco, NC) was added according to manufactures' instructions. The cells were incubated at 37° C. with 5% CO2 for 16 hours prior to human resistin (50 ng/mL) treatment for 24 hours. Cryopreserved plateable human hepatocytes, metabolism qualified from multiple normal human donors, were supplied by CellzDirect (Invitrogen, NC). Upon arrival, the cells (4-8 million in 1 mL), according to the manufacturer's instruction, were added to 48 mL warmed thawing medium (CHRM® Medium, Invitrogen, NC) and centrifuged at 100×g for 10 min at room temperature. The pellet was re-suspended in 4 mL plating medium (Williams E Medium, phenol red free, with maintenance supplement pack and 10% FBS, Gibco, NC). The cells were stained by Trypan Blue (Sigma, Canada) and counted by a haemocytometer, followed by seeding 1×10^6 cells/well in a 6-well collagen coated plate (CellzDirect, Invitrogen, NC). The cells were incubated at 37° C. with 5% CO2 for 4 hours to allow the cells to adhere. The plating media was replaced and cell incubated for 16 hours prior to human resistin treatment for 24 hours. […]

[3] = tested on: human hepatocytes; assay: cellular apoB100 protein expression in primary human hepatocytes; assay type: cell-based; settings: 50 ng/mL, 24 hours
Method: as §1

[4] = tested on: mouse primary hepatocytes; assay: cellular apoB100 protein expression in primary mouse hepatocytes; assay type: cell-based; settings: 50 ng/mL, 24 hours
Method: as §1

[5] = tested on: HepG2 cells; assay: cell viability, tryphan blue staining; assay type: cell-based, human; settings: 50 ng/mL or 100 ng/mL, 24 or 48 hours
Method: Cell viability was determined with 0.4% tryphan blue (Sigma-Aldrich, ON) staining and calculated using the following formula: % Cell Viability=(number of unstained (living) cells/Total number of cells)×100.
The next question was whether this amount of human resistin is toxic to hepatocytes. Tryphan blue staining of HepG2 cells upon 50 ng/mL of resistin treatment to determine cell viability was performed.

[6] = tested on: primary mouse hepatocytes from PCSK9 knockout mice; assay: LDL receptor protein in PCSK9 knockout mouse hepatocytes; assay type: cell-based; settings: 50 ng/mL, 24 hours
Method: Animal ethics approval was received for the mouse protocols to follow. Primary mouse hepatocytes from PCSK9 knockout mice (C57Bl/6 background) or their wildtype littermates were isolated by perfusing the liver via the hepatic portal vein with a 5 mM EGTA in Leffert's Buffer (10 mM Hepes; 3 mM KCl, 0.13 M NaCl, 1 mM NaH2PO4, 10 mM D-glucose) followed by a 0.3 mg/ml collagenase in 0.0279% CaCl2. Cells were then filtered through a 70 uM nylon strainer and centrifuged at 760 rpm for 5 min. The cells were then passed through a CHRM gradient (Invitrogen, NC). Viability of cells ranged from 80 to 95%. […] Mouse LDL receptor and PCSK9 protein in cell lysates were measured via immunoblotting, as described above, using the following primary antibodies: mouse LDL receptor (abcam, MA), mouse PCSK9 (abcam, MA) and mouse GAPDH (Cell Signaling, MA). […]
To then more directly quantify the role of PCSK9 in the resistin mediated reduction in hepatocyte LDL receptor levels, hepatocytes isolated and cultured from wild-type mice were treated with resistin, and compared to resistin-treated hepatocytes from PCSK9 knockout mice.

B1: human resistin: recombinant lyophilized purified human resistin (Calbiochem); cysteine-rich cytokine, single 12 kDa band (protein)
chain: KTLCSMEEAINERIQEVAGSLIFRAISSIGLECQSVTSRGDLATCPRGFAVTGCTCGSACGSWDVRAETTCHCQCAGMDWTGARCCRVQP
LDL receptor protein versus untreated control cells [1]: significantly reduced | increase in cellular apoB protein expression versus untreated control cells [2]: 40-50% | increase in cellular apoB protein expression versus untreated control cells [3]: 40-50% | increase in cellular apoB protein expression versus untreated control cells [4]: 40-50% | hepatocyte viability [5]: no marked reduction | decline in LDL receptor expression compared to untreated hepatocytes [6]: 15%
